Experiments:
[1] = target: Shewanella oneidensis diheme cytochrome c peroxidase, maltose-binding protein fusion (Shewanella oneidensis); experiment: SEC
[2] = target: Shewanella oneidensis diheme cytochrome c peroxidase, tag-free (Shewanella oneidensis); experiment: SEC

stoichiometry N [1]	stoichiometry N [2]	Substance
2		Shewanella oneidensis diheme cytochrome c peroxidase, maltose-binding protein fusion (enzyme)
	2	Shewanella oneidensis diheme cytochrome c peroxidase, tag-free (enzyme)
